From paper PMC11984658 (Journal of structural biology, 2024)

B1: RAD52(1–212) (domain or fragment, human, UniProt P43351 1-212, looked up)
chain: MSGTEEAILGGRDSHPAAGGGSVLCFGQCQYTAEEYQAIQKALRQRLGPEYISSRMAGGGQKVCYIEGHRVINLANEMFGYNGWAHSITQQNVDFVDLNNGKFYVGVCAFVRVQLKDGSYHEDVGYGVSEGLKSKALSLEKARKEAVTDGLKRALRSFGNALGNCILDKDYLRSLNKLPRQLPLEVDLTKAKRQDLEPSVEEARYNSCRPNM
B2: RAD52(1–303) (domain or fragment, human, UniProt P43351 1-303, looked up)
chain: MSGTEEAILGGRDSHPAAGGGSVLCFGQCQYTAEEYQAIQKALRQRLGPEYISSRMAGGGQKVCYIEGHRVINLANEMFGYNGWAHSITQQNVDFVDLNNGKFYVGVCAFVRVQLKDGSYHEDVGYGVSEGLKSKALSLEKARKEAVTDGLKRALRSFGNALGNCILDKDYLRSLNKLPRQLPLEVDLTKAKRQDLEPSVEEARYNSCRPNMALGHPQLQQVTSPSRPSHAVIPADQDCSSRSLSSSAVESEATHQRKLRQKQLQQQFRERMEKQQVRVSTPSAEKSEAAPPAPPVTHSTPVT

Tests used:
SEC-MALS = biological target: the molecule itself; assay: SEC-MALS
SAXS = biological target: the molecule itself; assay: SAXS

| Protein | stoichiometry N (SEC-MALS) [subunits] | stoichiometry N (SAXS) [subunits] |
| --- | --- | --- |
| B1 | 9.7 | 10 |
| B2 | 9.5 |  |
